T1: Bmx(h) (human, UniProt P51813 1-675, limits assumed)
T1 sequence (looked up): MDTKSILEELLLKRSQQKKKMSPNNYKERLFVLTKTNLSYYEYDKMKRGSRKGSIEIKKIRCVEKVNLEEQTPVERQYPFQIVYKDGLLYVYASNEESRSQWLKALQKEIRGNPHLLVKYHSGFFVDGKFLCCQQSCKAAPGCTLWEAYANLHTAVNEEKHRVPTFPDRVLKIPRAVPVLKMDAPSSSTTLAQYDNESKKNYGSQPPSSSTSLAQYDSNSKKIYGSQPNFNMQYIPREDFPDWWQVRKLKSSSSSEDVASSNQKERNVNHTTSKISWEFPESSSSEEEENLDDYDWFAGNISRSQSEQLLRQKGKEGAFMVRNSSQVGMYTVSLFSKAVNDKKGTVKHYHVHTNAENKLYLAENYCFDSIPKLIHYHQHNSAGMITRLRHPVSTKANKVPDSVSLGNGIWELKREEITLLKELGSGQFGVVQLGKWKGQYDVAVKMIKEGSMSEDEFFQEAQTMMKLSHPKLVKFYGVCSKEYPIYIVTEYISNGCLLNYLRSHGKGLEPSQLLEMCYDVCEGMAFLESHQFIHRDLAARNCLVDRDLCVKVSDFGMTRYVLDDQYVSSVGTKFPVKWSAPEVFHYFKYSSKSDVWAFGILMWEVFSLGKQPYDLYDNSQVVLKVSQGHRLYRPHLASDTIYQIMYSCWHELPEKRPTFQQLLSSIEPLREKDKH


Key:
Test in all cases: cell-based or functional assay
Ab1(M351T)(h) = Ab1(M351T)(h) (human, UniProt P00519 27-1130, limits assumed)
Lck(h) = Lck(h) (human, UniProt P06239 1-509, limits assumed)
CK1γ2(h) = CK1γ2(h) (human, UniProt P78368 1-415)
PAK5(h) = PAK5(h) (human, UniProt Q9P286 1-719, limits assumed)
EGFR(T790M)(h) = EGFR(T790M)(h) (human, UniProt P00533 696-1210, limits assumed)
CLK2(h) = CLK2(h) (human, UniProt P49760 1-499, limits assumed)
CK1γ3(h) = CK1γ3(h) (human, UniProt Q9Y6M4 1-447)
GRK5(h) = GRK5(h) (human, UniProt P34947 1-590)
EGFR(L858R)(h) = EGFR(L858R)(h) (human, UniProt P00533 696-1210, limits assumed)
cKit(V560G)(h) = cKit(V560G)(h) (human, UniProt P10721 544-976, limits assumed)
ACK1(h) = ACK1(h) (human, UniProt Q07912 110-476, limits assumed)
PKCη(h) = PKCη(h) (human, UniProt P24723 1-683)
CK1γ1(h) = CK1γ1(h) (human, UniProt Q9HCP0 1-422)
Bmx(h) = molecular target: T1, Bmx(h)
CK2α2(h) = CK2α2(h) (human, UniProt P19784 1-350)
JAK3(h) = JAK3(h) (human, UniProt P52333 781-1124, limits assumed)
PKA(h) = PKA(h) (human)
MAPK1(h) = MAPK1(h) (human, UniProt P28482 1-360, limits assumed)
SRPK2(h) = SRPK2(h) (human, UniProt P78362 1-688, limits assumed)
TLK2(h) = TLK2(h) (human, UniProt Q86UE8 1-772, limits assumed)

Binder | % activity (Ab1(M351T)(h)) [%] | % activity (Lck(h)) [%] | % activity (CK1γ2(h)) [%] | % activity (PAK5(h)) [%] | % activity (EGFR(T790M)(h)) [%] | % activity (CLK2(h)) [%] | % activity (CK1γ3(h)) [%] | % activity (GRK5(h)) [%] | % activity (EGFR(L858R)(h)) [%] | % activity (cKit(V560G)(h)) [%] | % activity (ACK1(h)) [%] | % activity (PKCη(h)) [%] | % activity (CK1γ1(h)) [%] | % activity (Bmx(h)) [%] | % activity (CK2α2(h)) [%] | % activity (JAK3(h)) [%] | % activity (PKA(h)) [%] | % activity (MAPK1(h)) [%] | % activity (SRPK2(h)) [%] | % activity (TLK2(h)) [%]
FAKLAARLYRKALARQLGVAA [MMI-0300] | 90 | -2 | 123 | 110 | 100 | 103 | 125 |  |  |  |  |  |  |  |  |  |  |  |  | 
KAFAKLAARLYRKALARQLGVAA [MMI-0400] |  |  |  |  |  |  |  | 131 | 52 | 124 | 95 | 98 | 116 | 26 | 96 | 122 | 119 | 100 | 97 | 151

From US20160200782A1 (MOERAE MATRIX, published 2016)
